Laboratory results reported in the supplement of paper PMC10567573.

B1: ZNF449 (parent)
chain: FQEYDTDCEVFRQRFRQFQYREAA

Variants of: B1
Test: protein stability index of a GFP-peptide fusion (GPS, HEK-293T) (PSI 1-6); higher = more stable
Details: c terminus: a fixed tail appended
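Also: lentivirally expressed fusions sorted by FACS into six bins by GFP to DsRed ratio, PSI derived from sequencing read proportions per bin multiplied by bin number.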

Protein stability index: each site, then its substitutions
D7: A 1.53 | Y 1.34 | H 2.12 | F 2.27 | G 2.02 | M 1.59 | Q 2.68 | R 2.3 | K 2.02 | L 1.93 | T 2.08 | I 2.25 | P 1.61 | E 2.26 | V 1.34 | N 1.83 | C 1.1 | S 2.1
R12: W 1.94 | D 3.31 | G 2.57 | Y 2.06 | Q 2.61 | P 2.35 | M 2.24 | N 2.27 | T 2.41 | S 2.53 | L 1.97 | V 2.21 | C 1.71 | F 2.54 | E 2.48 | I 2.14 | H 2.3 | K 2.38 | A 3.29
F11: W 2.37 | C 2.99 | K 3.14 | S 2.94 | E 3.51 | T 3.15 | N 3.57 | I 2.72 | P 3.33 | V 3.68 | H 3.45 | L 2.54 | M 3.27 | Q 3.24 | Y 2.78 | R 4.69 | G 3.6 | D 3.95
R14: C 2.23 | D 2.17 | A 2.83
T6: V 2.22 | G 1.92 | H 2.1 | C 1.94 | E 2.17 | L 1.89 | P 2.77 | F 2.22 | N 2.67 | Y 2.81 | I 2.74 | Q 2.65 | M 2.13 | W 2.11 | K 2.05 | S 1.73 | D 2.62 | A 2.58
D5: V 1.23 | I 1.42 | T 1.35 | G 1.78 | R 1.79 | N 2.68 | L 2.5 | K 2.64 | M 2.05 | F 1.65 | Y 2.55 | E 2.45 | H 1.76 | Q 1.57 | S 2.28 | W 1.29
Q13: I 1.94 | C 2.34 | N 2.58 | M 1.67 | Y 1.75 | L 1.67 | D 2.6 | P 1.03 | T 2.41 | E 2.51 | S 2.4 | K 2.22 | H 2.53 | F 1.87 | G 1.81 | V 2.53 | R 2.04 | W 2.42 | A 2.72
V10: G 2.9 | A 2.2 | K 2.35 | Q 3.27 | T 2.49 | N 2.67 | P 2.92 | R 2.37 | S 2.78 | C 2.52 | D 3.02 | W 2.13 | H 3 | I 2.5 | L 2.3 | M 2.63 | E 3.08 | Y 2.62 | F 2.86
C8: A 2.76 | V 2.74 | S 2.88 | E 3.42 | F 2.24 | D 3.11 | G 2.08 | N 2.58 | Y 2 | R 2.32 | H 3.01 | P 2.7 | K 2.63 | I 2.49 | M 2.71 | Q 2.21 | L 2.04 | W 1.83 | T 2.71
E9: S 1.54 | V 1.79 | H 1.6 | G 2.29 | F 1.96 | K 2.21 | T 1.89 | P 2.46 | Y 1.27 | I 2.47 | Q 1.88 | N 2.35 | D 2.16 | A 2 | M 2.65 | C 1.76 | W 2.02 | L 1.67
